# ± gives the uncertainty stated by the source.
# Tested on: HEK293T
# Experiment: plasma membrane surface immunostaining intensity (anti-HA, deep receptor scanning) (arbitrary fluorescence units); higher = higher plasma membrane expression
sequence,measurement,setting,value
MSPCGPLNLSLAGEATTCAAPWVPNTSAVPPSGASPALPIFSMTLGAVSNLLALALLAQAAGRLRRRRSAATFLLFVASLLATDLAGHVIPGALVLRLYTAGRAPAGGACHFLGGCMVFFGLCPLLLGCGMAVERCVGVTRPLLHAARVSVARARLALAAVAAVALAVALLPLARVGRYELQYPGTWCFIGLGPPGGWRQALLAGLFASLGLVALLAALVCNTLSGLALLRARWRRRSRRPPPASGPDSRRRWGAHGPRSASASSASSIASASTFFGGSRSSGSARRARAHDVEMVGQLVGIMVVSCICWSPMLVLVALAVGGWSSTSLQRPLFLAVRLASWNQILDPWVYILLRQAVLRQLLRLLPPRAGAKGGPAGLGLTPSAWEASSLRSSRHSGLSHF [PTGER1],plasma membrane surface immunostaining intensity,GPCR class: A,1460 ± 250
MEDLEETLFEEFENYSYDLDYYSLESDLEEKVQLGVVHWVSLVLYCLAFVLGIPGNAIVIWFTGFKWKKTVTTLWFLNLAIADFIFLLFLPLYISYVAMNFHWPFGIWLCKANSFTAQLNMFASVFFLTVISLDHYIHLIHPVLSHRHRTLKNSLIVIIFIWLLASLIGGPALYFRDTVEFNNHTLCYNNFQKHDPDLTLIRHHVLTWVKFIIGYLFPLLTMSICYLCLIFKVKKRSILISSRHFWTILVVVVAFVVCWTPYHLFSIWELTIHHNSYSHHVMQAGIPLSTGLAFLNSCLNPILYVLISKKFQARFRSSVAEILKYTLWEVSCSGTVSEQLRNSETKNLCLLETAQ [CMKLR2],plasma membrane surface immunostaining intensity,GPCR class: A,510 ± 52
MEPAPSAGAELQPPLFANASDAYPSACPSAGANASGPPGARSASSLALAIAITALYSAVCAVGLLGNVLVMFGIVRYTKMKTATNIYIFNLALADALATSTLPFQSAKYLMETWPFGELLCKAVLSIDYYNMFTSIFTLTMMSVDRYIAVCHPVKALDFRTPAKAKLINICIWVLASGVGVPIMVMAVTRPRDGAVVCMLQFPSPSWYWDTVTKICVFLFAFVVPILIITVCYGLMLLRLRSVRLLSGSKEKDRSLRRITRMVLVVVGAFVVCWAPIHIFVIVWTLVDIDRRDPLVVAALHLCIALGYANSSLNPVLYAFLDENFKRCFRQLCRKPCGRPDPSSFSRAREATARERVTACTPSDGPGGGAAA [OPRD1],plasma membrane surface immunostaining intensity,GPCR class: A,6220 ± 99
MDPEETSVYLDYYYATSPNSDIRETHSHVPYTSVFLPVFYTAVFLTGVLGNLVLMGALHFKPGSRRLIDIFIINLAASDFIFLVTLPLWVDKEASLGLWRTGSFLCKGSSYMISVNMHCSVLLLTCMSVDRYLAIVWPVVSRKFRRTDCAYVVCASIWFISCLLGLPTLLSRELTLIDDKPYCAEKKATPIKLIWSLVALIFTFFVPLLSIVTCYCCIARKLCAHYQQSGKHNKKLKKSIKIIFIVVAAFLVSWLPFNTFKFLAIVSGLRQEHYLPSAILQLGMEVSGPLAFANSCVNPFIYYIFDSYIRRAIVHCLCPCLKNYDFGSSTETSDSHLTKALSTFIHAEDFARRRKRSVSL [GPR15],plasma membrane surface immunostaining intensity,GPCR class: A,342 ± 19
METNFSTPLNEYEEVSYESAGYTVLRILPLVVLGVTFVLGVLGNGLVIWVAGFRMTRTVTTICYLNLALADFSFTATLPFLIVSMAMGEKWPFGWFLCKLIHIVVDINLFGSVFLIGFIALDRCICVLHPVWAQNHRTVSLAMKVIVGPWILALVLTLPVFLFLTTVTIPNGDTYCTFNFASWGGTPEERLKVAITMLTARGIIRFVIGFSLPMSIVAICYGLIAAKIHKKGMIKSSRPLRVLTAVVASFFICWFPFQLVALLGTVWLKEMLFYGKYKIIDILVNPTSSLAFFNSCLNPMLYVFVGQDFRERLIHSLPTSLERALSEDSAPTNDTAANSASPPAETELQAM [FPR2],plasma membrane surface immunostaining intensity,GPCR class: A,6515 ± 60
MWPNGSSLGPCFRPTNITLEERRLIASPWFAASFCVVGLASNLLALSVLAGARQGGSHTRSSFLTFLCGLVLTDFLGLLVTGTIVVSQHAALFEWHAVDPGCRLCRFMGVVMIFFGLSPLLLGAAMASERYLGITRPFSRPAVASQRRAWATVGLVWAAALALGLLPLLGVGRYTVQYPGSWCFLTLGAESGDVAFGLLFSMLGGLSVGLSFLLNTVSVATLCHVYHGQEAAQQRPRDSEVEMMAQLLGIMVVASVCWLPLLVFIAQTVLRNPPAMSPAGQLSRTTEKELLIYLRVATWNQILDPWVYILFRRAVLRRLQPRLSTRPRSLSLQPQLTQRSGLQ [TBXA2R],plasma membrane surface immunostaining intensity,GPCR class: A,6469 ± 48
MKIANNTVVTEFILLGLTQSQDIQLLVFVLILIFYLIILPGNFLIIFTIRSDPGLTAPLYLFLGNLAFLDASYSFIVAPRMLVDFLSEKKVISYRGCITQLFFLHFLGGGEGLLLVVMAFDRYIAICRPLHCSTVMNPRACYAMMLALWLGGFVHSIIQVVLILRLPFCGPNQLDNFFCDVRQVIKLACTDMFVVELLMVFNSGLMTLLCFLGLLASYAVILCHVRRAASEGKNKAMSTCTTRVIIILLMFGPAIFIYICPFRALPADKMVSLFHTVIFPLMNPMIYTLRNQEVKTSMKRLLSRHVVCQVDFIIRN [OR4N4C],plasma membrane surface immunostaining intensity,GPCR class: A (Olfactory),323 ± 130
MASPSLPGSDCSQIIDHSHVPEFEVATWIKITLILVYLIIFVMGLLGNSATIRVTQVLQKKGYLQKEVTDHMVSLACSDILVFLIGMPMEFYSIIWNPLTTSSYTLSCKLHTFLFEACSYATLLHVLTLSFERYIAICHPFRYKAVSGPCQVKLLIGFVWVTSALVALPLLFAMGTEYPLVNVPSHRGLTCNRSSTRHHEQPETSNMSICTNLSSRWTVFQSSIFGAFVVYLVVLLSVAFMCWNMMQVLMKSQKGSLAGGTRPPQLRKSESEESRTARRQTIIFLRLIVVTLAVCWMPNQIRRIMAAAKPKHDWTRSYFRAYMILLPFSETFFYLSSVINPLLYTVSSQQFRRVFVQVLCCRLSLQHANHEKRLRVHAHSTTDSARFVQRPLLFASRRQSSARRTEKIFLSTFQSEAEPQSKSQSLSLESLEPNSGAKPANSAAENGFQEHEV [GPR39],plasma membrane surface immunostaining intensity,GPCR class: A,5870 ± 200
MSGENVTRVGTFILVGFPTAPGLQYLLFLLFLLTYLFVLVENLAIILTVWSSTSLHRPMYYFLSSMSFLEIWYVSDITPKMLEGFLLQQKRISFVGCMTQLYFFSSLVCTECVLLASMAYDRYVAICHPLRYHVLVTPGLCLQLVGFSFVSGFTISMIKVCFISSVTFCGSNVLNHFFCDISPILKLACTDFSTAELVDFILAFIILVFPLLATMLSYAHITLAVLRIPSATGCWRAFFTCASHLTVVTVFYTALLFMYVRPQAIDSRSSNKLISVLYTVITPILNPLIYCLRNKEFKNALKKAFGLTSCAVEGRLSSLLELHLQIHSQPL [OR6B3],plasma membrane surface immunostaining intensity,GPCR class: A (Olfactory),115 ± 11
MEAENLTELSKFLLLGLSDDPELQPVLFGLFLSMYLVTVLGNLLIILAVSSDSHLHTPMYFFLSNLSFVDICFISTTVPKMLVSIQARSKDISYMGCLTQVYFLMMFAGMDTFLLAVMAYDRFVAICHPLHYTVIMNPCLCGLLVLASWFIIFWFSLVHILLMKRLTFSTGTEIPHFFCEPAQVLKVACSNTLLNNIVLYVATALLGVFPVAGILFSYSQIVSSLMGMSSTKGKYKAFSTCGSHLCVVSLFYGTGLGVYLSSAVTHSSQSSSTASVMYAMVTPMLNPFIYSLRNKDVKGALERLLSRADSCP [OR7D4],plasma membrane surface immunostaining intensity,GPCR class: A (Olfactory),157 ± 48
MDHQDPYSVQATAAIAAAITFLILFTIFGNALVILAVLTSRSLRAPQNLFLVSLAAADILVATLIIPFSLANELLGYWYFRRTWCEVYLALDVLFCTSSIVHLCAISLDRYWAVSRALEYNSKRTPRRIKCIILTVWLIAAVISLPPLIYKGDQGPQPRGRPQCKLNQEAWYILASSIGSFFAPCLIMILVYLRIYLIAKRSNRRGPRAKGGPGQGESKQPRPDHGGALASAKLPALASVASAREVNGHSKSTGEKEEGETPEDTGTRALPPSWAALPNSGQGQKEGVCGASPEDEAEEEEEEEEEEEECEPQAVPVSPASACSPPLQQPQGSRVLATLRGQVLLGRGVGAIGGQWWRRRAQLTREKRFTFVLAVVIGVFVLCWFPFFFSYSLGAICPKHCKVPHGLFQFFFWIGYCNSSLNPVIYTIFNQDFRRAFRRILCRPWTQTAW [ADRA2B],plasma membrane surface immunostaining intensity,GPCR class: A,6390 ± 13
MANYTLAPEDEYDVLIEGELESDEAEQCDKYDAQALSAQLVPSLCSAVFVIGVLDNLLVVLILVKYKGLKRVENIYLLNLAVSNLCFLLTLPFWAHAGGDPMCKILIGLYFVGLYSETFFNCLLTVQRYLVFLHKGNFFSARRRVPCGIITSVLAWVTAILATLPEFVVYKPQMEDQKYKCAFSRTPFLPADETFWKHFLTLKMNISVLVLPLFIFTFLYVQMRKTLRFREQRYSLFKLVFAIMVVFLLMWAPYNIAFFLSTFKEHFSLSDCKSSYNLDKSVHITKLIATTHCCINPLLYAFLDGTFSKYLCRCFHLRSNTPLQPRGQSAQGTSREEPDHSTEV [CCRL2],plasma membrane surface immunostaining intensity,GPCR class: A,569 ± 46
MVPHLLLLCLLPLVRATEPHEGRADEQSAEAALAVPNASHFFSWNNYTFSDWQNFVGRRRYGAESQNPTVKALLIVAYSFIIVFSLFGNVLVCHVIFKNQRMHSATSLFIVNLAVADIMITLLNTPFTLVRFVNSTWIFGKGMCHVSRFAQYCSLHVSALTLTAIAVDRHQVIMHPLKPRISITKGVIYIAVIWTMATFFSLPHAICQKLFTFKYSEDIVRSLCLPDFPEPADLFWKYLDLATFILLYILPLLIISVAYARVAKKLWLCNMIGDVTTEQYFALRRKKKKTIKMLMLVVVLFALCWFPLNCYVLLLSSKVIRTNNALYFAFHWFAMSSTCYNPFIYCWLNENFRIELKALLSMCQRPPKPQEDRPPSPVPSFRVAWTEKNDGQRAPLANNLLPTSQLQSGKTDLSSVEPIVTMS [GPR83],plasma membrane surface immunostaining intensity,GPCR class: A,490 ± 39
MRFTFTSRCLALFLLLNHPTPILPAFSNQTYPTIEPKPFLYVVGRKKMMDAQYKCYDRMQQLPAYQGEGPYCNRTWDGWLCWDDTPAGVLSYQFCPDYFPDFDPSEKVTKYCDEKGVWFKHPENNRTWSNYTMCNAFTPEKLKNAYVLYYLAIVGHSLSIFTLVISLGIFVFFRSLGCQRVTLHKNMFLTYILNSMIIIIHLVEVVPNGELVRRDPVSCKILHFFHQYMMACNYFWMLCEGIYLHTLIVVAVFTEKQRLRWYYLLGWGFPLVPTTIHAITRAVYFNDNCWLSVETHLLYIIHGPVMAALVVNFFFLLNIVRVLVTKMRETHEAESHMYLKAVKATMILVPLLGIQFVVFPWRPSNKMLGKIYDYVMHSLIHFQGFFVATIYCFCNNEVQTTVKRQWAQFKIQWNQRWGRRPSNRSARAAAAAAEAGDIPIYICHQELRNEPANNQGEESAEIIPLNIIEQESSA [CALCR],plasma membrane surface immunostaining intensity,GPCR class: B,5000 ± 720
MITLNNQDQPVPFNSSHPDEYKIAALVFYSCIFIIGLFVNITALWVFSCTTKKRTTVTIYMMNVALVDLIFIMTLPFRMFYYAKDEWPFGEYFCQILGALTVFYPSIALWLLAFISADRYMAIVQPKYAKELKNTCKAVLACVGVWIMTLTTTTPLLLLYKDPDKDSTPATCLKISDIIYLKAVNVLNLTRLTFFFLIPLFIMIGCYLVIIHNLLHGRTSKLKPKVKEKSIRIIITLLVQVLVCFMPFHICFAFLMLGTGENSYNPWGAFTTFLMNLSTCLDVILYYIVSKQFQARVISVMLYRNYLRSMRRKSFRSGSLRSLSNINSEML [GPR18],plasma membrane surface immunostaining intensity,GPCR class: A,360 ± 120
MLAAAFADSNSSSMNVSFAHLHFAGGYLPSDSQDWRTIIPALLVAVCLVGFVGNLCVIGILLHNAWKGKPSMIHSLILNLSLADLSLLLFSAPIRATAYSKSVWDLGWFVCKSSDWFIHTCMAAKSLTIVVVAKVCFMYASDPAKQVSIHNYTIWSVLVAIWTVASLLPLPEWFFSTIRHHEGVEMCLVDVPAVAEEFMSMFGKLYPLLAFGLPLFFASFYFWRAYDQCKKRGTKTQNLRNQIRSKQVTVMLLSIAIISALLWLPEWVAWLWVWHLKAAGPAPPQGFIALSQVLMFSISSANPLIFLVMSEEFREGLKGVWKWMITKKPPTVSESQETPAGNSEGLPDKVPSPESPASIPEKEKPSSPSSGKGKTEKAEIPILPDVEQFWHERDTVPSVQDNDPIPWEHEDQETGEGVK [GPR151],plasma membrane surface immunostaining intensity,GPCR class: A,5990 ± 230
